Target: T1, Shp1^3HA (S. cerevisiae, UniProt P34223 1-423)
T1 construct: Shp1 (Ubx1), S. cerevisiae; source: S. cerevisiae DF5, chromosomal fusion SHP1^3HA::klTRP1, endogenous expression level, in lysate
T1 sequence (looked up): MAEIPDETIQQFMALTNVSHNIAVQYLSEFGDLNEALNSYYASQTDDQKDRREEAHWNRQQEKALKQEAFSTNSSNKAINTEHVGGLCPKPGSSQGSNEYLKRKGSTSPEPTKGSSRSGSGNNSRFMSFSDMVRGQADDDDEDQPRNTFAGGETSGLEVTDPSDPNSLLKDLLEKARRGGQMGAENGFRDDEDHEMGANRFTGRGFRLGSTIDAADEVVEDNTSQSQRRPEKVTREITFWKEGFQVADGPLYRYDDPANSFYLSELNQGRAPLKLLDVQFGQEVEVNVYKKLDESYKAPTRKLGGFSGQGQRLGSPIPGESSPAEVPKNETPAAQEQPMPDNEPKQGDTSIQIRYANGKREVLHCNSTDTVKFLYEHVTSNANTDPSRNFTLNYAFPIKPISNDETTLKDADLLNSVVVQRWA
Assay: co-IP; yeast lysates; immunoprecipitation with pre-coupled anti-HA antibody (overnight, 4°C), IP buffer 50 mM Tris/HCl pH 7.5, 100 mM KCl, 5 mM MgCl2, NP-40, 10% glycerol; Western blot; for Glc8^3HA lysates of asynchronous or α-factor-arrested wild-type and shp1-7 cells
Settings: partners not purified

B1: Glc7^3myc (enzyme, S. cerevisiae, UniProt P32598 1-312, looked up)
chain: MDSQPVDVDNIIDRLLEVRGSKPGQQVDLEENEIRYLCSKARSIFIKQPILLELEAPIKICGDIHGQYYDLLRLFEYGGFPPESNYLFLGDYVDRGKQSLETICLLLAYKIKYPENFFILRGNHECASINRIYGFYDECKRRYNIKLWKTFTDCFNCLPIAAIIDEKIFCMHGGLSPDLNSMEQIRRVMRPTDIPDVGLLCDLLWSDPDKDIVGWSENDRGVSFTFGPDVVNRFLQKQDMELICRAHQVVEDGYEFFSKRQLVTLFSAPNYCGEFDNAGAMMSVDESLLCSFQILKPAQKSLPRQAGGRKKK
notes: Glc7, catalytic subunit of protein phosphatase 1, S. cerevisiae; carboxyl-terminally tagged at its authentic chromosomal locus; also called PP1 catalytic subunit; source: S. cerevisiae DF5, expressed from the chromosomal GLC7 locus as sole source of Glc7, in lysate; not shown: 3myc, C-terminal, kept
  fold difference of the Glc7 signal in the IP lane (relative to the heavy chain signal) against the negative control: > 8 fold
